The values below come from publication PMC4968834, “Generation and Characterization of an IgG4 Monomeric Fc Platform” (PLoS ONE, 2016).

Where two headings read alike, the source gives them in different places.

In assay [1] the target is T1, Recombinant human FcRn (soluble) (human, UniProt P55899 24-297; P61769 21-119, biotin (biotinylated FcRn; which chain and site not stated)). As to the kind of experiment: BLI; Octet384; biotinylated FcRn captured on streptavidin biosensors, Fc variants in solution; 100 mM MES pH 6.0, 3 mg/ml BSA, 0.05% Tween 20; steady-state analysis, apparent KD, avidity binding format. A general note: BLI is a label-free optical method that tracks binding on a fibre tip over time.

Assay [2] concerns the target Clone 4 (C4), monomeric IgG4 Fc with YTE. As to the kind of experiment: BLI; Octet384; binding of inactive IdeS (C94S) to Fc; who was immobilised not told.
The target of assay [3] is T1, Recombinant human FcRn (soluble). As to the kind of experiment: cell-based or functional assay.

T1 sequence (P55899 24-297, chain 1 of 2): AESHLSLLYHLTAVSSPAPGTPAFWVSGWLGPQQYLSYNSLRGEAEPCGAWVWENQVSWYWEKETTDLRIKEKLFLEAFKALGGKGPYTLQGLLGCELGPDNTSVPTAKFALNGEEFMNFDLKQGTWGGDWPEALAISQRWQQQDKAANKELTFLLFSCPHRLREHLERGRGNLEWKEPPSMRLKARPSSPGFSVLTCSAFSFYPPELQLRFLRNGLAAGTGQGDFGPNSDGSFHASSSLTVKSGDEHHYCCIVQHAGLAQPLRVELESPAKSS
T1 sequence (P61769 21-119, chain 2 of 2): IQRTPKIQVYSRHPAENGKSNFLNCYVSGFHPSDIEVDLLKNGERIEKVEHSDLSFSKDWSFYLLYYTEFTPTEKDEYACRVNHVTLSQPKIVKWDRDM

With IgG1 mAb control (antibody), the Kd in assay [1] came out at 270 nM.

For the molecule IgG4 wildtype Fc (domain or fragment), the Kd in assay [1] was determined as 140 nM.

For the molecule IgG1 YTE (antibody), the Kd in assay [1] is 39 nM.

In the case of “Inactive form of IgG-degrading enzyme of S. pyogenes (IdeS, C94S)”, the Kd in assay [2] is 3000 nM.

B1: Onart-Fab-C4 (Fab of Onartuzumab fused to monomeric Fc C4) (Fc fusion)
chain 1: EVQLVESGGGLVQPGGSLRLSCAASGYTFTSYWLHWVRQAPGKGLEWVGMIDPSNSDTRFNPNFKDRFTISADTSKNTAYLQMNSLRAEDTAVYYCATYRSYVTPLDYWGQGTLVTVSSASTKGPSVFPLAPSSKSTSGGTAALGCLVKDYFPEPVTVSWNSGALTSGVHTFPAVLQSSGLYSLSSVVTVPSSSLGTQTYICNVNHKPSNTKVDKKVEPKSCPEFLGGPSVFLFPPKPKDTLYITREPEVTCVVVDVSQEDPEVQFNWYVDGVEVHNAKTKPREEQFNSTYRVVSVLTVLHQDWLNGKEYKCKVSNKGLPSSIEKTISKAKGQPREPQVYTFPPSQEEMTKNQVSLRCLVKGFYPSDIAVEWESNGQPENNYKTTKPVLDSDGSFRLESRLTVDKSRWQEGNVFSCSVMHEALHNHYTQKSLSLSLGK
chain 2: DIQMTQSPSSLSASVGDRVTITCKSSQSLLYTSSQKNYLAWYQQKPGKAPKLLIYWASTRESGVPSRFSGSGSGTDFTLTISSLQPEDFATYYCQQYYAYPWTFGQGTKVEIKRTVAAPSVFIFPPSDEQLKSGTASVVCLLNNFYPREAKVQWKVDNALQSGNSQESVTEQDSKDSTYSLSSTLTLSKADYEKHKVYACEVTHQGLSSPVTKSFNRGEC
For B1, the “terminal half-life (T1/2) in hFcRn transgenic mice, 2.5 mg/kg intravenous” value in assay [3] was found to be 21 h. Moreover, the Kd in assay [1] (both partners purified) came out at 160 nM.
